The data set has as its target Lassa virus nucleoprotein NP (WT) (Lassa virus (AV strain), UniProt Q9DQX7). Put plainly: native MS.

On to UAGGAAUCU (ssRNA) [9 nt RNA], for which the binding result is “binds”. The entry for ACACAAAGACCC (ssRNA) [12 nt RNA] is “binds”.

(Values after paper doi:10.1101/2023.02.09.527830.)
